Measurements: patent US20230192890A1 (published 2023)
Changes are numbered by the printed parent chain.

B1: A11 (antibody, IgG1, V domains shown)
VH: AVTLDESGGGLQTPGGALSLVCKASGFDFSSYGMGWMRQAPGKGLEYVAAIRNDGSWTGYGAAVKGHATISRDNGQSTVRLQLNNLRAEDTGTYYCAKTTGSRGGSIDAWGHGTEVIVS
VL: ASTQPSSVSANLGGTVEITCSGGGRYYYGWYQQKSPGSAPVTVIYANDKRPSDIPSRFSGSKSGSTGTLTITGVQAEDEAVYFCGSAETSSYVFGAGTTLTVL
notes: Chicken variable regions in mouse chimeric antibody (IgG1) expression vectors; also called anti-PAD4 antibody A11; A11 etc
B2: H7 (antibody, IgG1, V domains shown)
VH: B1 VH with D28T, S31T, G33A, H67R, S71L, N84S, T99Y, R103S, D108G
VL: ASTQPSSVSANPGGTVEITCSGGSGRYYYGWYQQKSPGSAPVTVIYSSTHRPSNIPSRFSGSKSGSTATLTITGVQAEDEAVYFCGTADSSSYVFGAGTTLTVL
notes: Chicken variable regions in mouse chimeric antibody (IgG1) expression vectors; also called anti-PAD4 antibody H7; A11 etc
B3: G8 (antibody, IgG1, V domains shown)
VH: B1 VH with D28T, S31T, G33A, H67R, S71L, N84S, T99Y, R103S, D108G
VL: ASTQPSSVSANLGGTVEITCSGGNRNYYYGWYQQKSPGSAPVTLIYANDKRPSNIPSRFSGSKSGSTGTLTITGVQAEDEAVYFCGTADTGKYVFGAGTTLTVL
notes: Chicken variable regions in mouse chimeric antibody (IgG1) expression vectors; also called anti-PAD4 antibody G8; A11 etc
B4: G6 (antibody, IgG1, V domains shown)
VH: B1 VH with D28T, G35E, M37V, H67R, N74D, V79L, G92A, R103S
VL: B1 VL with G14E, E17K, R25N, V43L, D53N, S86T, E88D, S90G, S91K
notes: Chicken variable regions in mouse chimeric antibody (IgG1) expression vectors; also called anti-PAD4 antibody G6; A11 etc
B5: G9 (antibody, IgG1, V domains shown)
VH: B1 VH with D28T, S31T, G33A, H67R, S71L, N84S, T99Y, R103S, D108G
VL: B1 VL with S2V, S6A
notes: Chicken variable regions in mouse chimeric antibody (IgG1) expression vectors; also called anti-PAD4 antibody G9; A11 etc
B6: E9 (antibody, IgG1, V domains shown)
VH: B1 VH with A17T, A24G, D28T, A62S, H67R, G92A, T100S, R103S, I107V
VL: B1 VL
notes: Chicken variable regions in mouse chimeric antibody (IgG1) expression vectors; also called anti-PAD4 antibody E9; A11 etc
B7: Humanized Ab #G8-H4.00/L4.29 (IgG1κ) (antibody, V domains shown)
VH: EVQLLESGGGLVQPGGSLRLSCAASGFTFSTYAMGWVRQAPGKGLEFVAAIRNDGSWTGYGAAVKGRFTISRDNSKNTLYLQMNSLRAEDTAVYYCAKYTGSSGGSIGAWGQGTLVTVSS
VL: SYELTQPPSVSVSPGQTARITCSGGNRNYYYGWYQQKPGQAPVTVIYANDKRPSGIPERFSGSNSGSTTTLTISGVQAEDEADYYCGTADTGKYVFGGGTKLTVLG
notes: Full-length heavy and light chains; also called humanized anti-PAD4 antibody derived from G8; G8 VH H4.00 / VL L4.29
B8: Humanized Ab #H7-H4.00/L4.29 (IgG1κ) (antibody, V domains shown)
VH: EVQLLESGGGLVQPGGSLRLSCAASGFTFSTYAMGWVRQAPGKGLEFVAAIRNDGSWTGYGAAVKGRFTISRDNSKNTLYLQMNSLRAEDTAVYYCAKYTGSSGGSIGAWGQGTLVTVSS
VL: B7 VL with N26S, R27G, N28R, A48S, N49S, D50T, K51H, T91S, G92S, K93S
notes: Full-length heavy and light chains; also called humanized anti-PAD4 antibody derived from H7

Each binder was assayed against full-length recombinant human or mouse PAD4 (Example 4; which of the two is not told for the result) (assay: cell-based or functional assay).

| Binder | Relative citrullination activity |
| --- | --- |
| B1 | 64 relative to PBS = 100 |
| B2 | 35 relative to PBS = 100 |
| B3 | 63 relative to PBS = 100 |
| B4 | 69 relative to PBS = 100 |
| B5 | 68 relative to PBS = 100 |
| B6 | 59 relative to PBS = 100 |

What follows are binders tested against T1, full-length recombinant human PAD4 (human, UniProt Q9UM07 1-663) (assay: Biacore T200, human PAD4 as analyte).
T1 construct: also called peptidylarginine deiminase 4
T1 sequence (Q9UM07 whole entry): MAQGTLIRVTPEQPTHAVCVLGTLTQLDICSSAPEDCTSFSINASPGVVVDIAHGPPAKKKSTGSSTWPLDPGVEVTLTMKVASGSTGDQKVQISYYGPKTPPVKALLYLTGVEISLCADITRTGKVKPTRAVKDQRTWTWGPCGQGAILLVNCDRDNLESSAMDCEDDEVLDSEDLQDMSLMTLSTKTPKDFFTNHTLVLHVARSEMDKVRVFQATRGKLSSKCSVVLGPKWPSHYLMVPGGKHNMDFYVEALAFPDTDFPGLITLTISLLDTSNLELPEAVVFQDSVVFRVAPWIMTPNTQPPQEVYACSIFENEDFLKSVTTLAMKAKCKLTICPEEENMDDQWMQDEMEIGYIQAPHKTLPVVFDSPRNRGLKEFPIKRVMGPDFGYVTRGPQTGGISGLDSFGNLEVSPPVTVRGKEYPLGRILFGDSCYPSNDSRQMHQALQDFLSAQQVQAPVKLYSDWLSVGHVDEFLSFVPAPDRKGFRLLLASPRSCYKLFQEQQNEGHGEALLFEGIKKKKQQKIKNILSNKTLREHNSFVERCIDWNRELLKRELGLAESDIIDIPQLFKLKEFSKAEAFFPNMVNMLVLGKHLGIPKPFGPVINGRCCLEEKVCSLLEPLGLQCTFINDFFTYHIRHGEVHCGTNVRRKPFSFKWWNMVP

| Binder | Kd [nM] |
| --- | --- |
| B7 | ≤ 9 |
| B8 | ≤ 9 |
| B1 | ≤ 9 |
| B2 | ≤ 9 |
| B3 | ≤ 9 |
| B4 | ≤ 9 |
| B5 | ≤ 9 |
| B6 | ≤ 9 |

Molecular target: T2, Ala mutant SEQ ID NO: 32 (human)
T2 peptide: EENMDAQWMQDEMEIGY
Assay: ELISA, peptide on plate (10 ug/mL)

| Binder | absorbance 490 nm/630 nm [OD] |
| --- | --- |
| B2 | 0.033 |
| B3 | 0.083 |
| B4 | 0.035 |
| B5 | 0.039 |

Molecular target: T3, Ala mutant SEQ ID NO: 34 (human)
T3 peptide: EENMDDQAMQDEMEIGY
Assay: ELISA, peptide on plate (10 ug/mL)

| Binder | absorbance 490 nm/630 nm [OD] |
| --- | --- |
| B1 | 0.021 |
| B2 | 0.066 |
| B3 | 0.04 |
| B4 | 0.042 |
| B5 | 0.038 |
| B6 | 0.047 |

Molecular target: T4, Ala mutant SEQ ID NO: 35 (human)
T4 peptide: EENMDDQWAQDEMEIGY
Assay: ELISA, peptide on plate (10 ug/mL)

| Binder | absorbance 490 nm/630 nm [OD] |
| --- | --- |
| B1 | 0.023 |
| B2 | 0.065 |
| B3 | 0.233 |
| B4 | 0.015 |
| B5 | 0.253 |
| B6 | 0.017 |

Molecular target: T5, Ala mutant having 3-amino acid substitution, SEQ ID NO: 45 (human)
T5 peptide: EENAAAQWMQDEMEIGY
Assay: ELISA, peptide on plate (10 ug/mL)

| Binder | absorbance 490 nm/630 nm [OD] |
| --- | --- |
| B1 | 0.039 |
| B2 | 0.016 |
| B3 | 0.065 |
| B4 | 0.018 |
| B5 | 0.019 |
| B6 | 0.022 |

Molecular target: T6, Ala mutant having 3-amino acid substitution, SEQ ID NO: 46 (human)
T6 peptide: EENMDDAAAQDEMEIGY
Assay: ELISA, peptide on plate (10 ug/mL)

| Binder | absorbance 490 nm/630 nm [OD] |
| --- | --- |
| B1 | 0.043 |
| B2 | 0.044 |
| B4 | 0.083 |
| B6 | 0.027 |

These binders were tested against T1, full-length recombinant human PAD4 (assay: ELISA, human PAD4 on plate, antibody 1 ug/mL).

| Binder | absorbance 490 nm/630 nm [OD] |
| --- | --- |
| B1 | 2.15 |
| B2 | 2.11 |
| B3 | 2.12 |
| B4 | 2.11 |
| B5 | 2.1 |
| B6 | 2.11 |

What follows are binders tested against T1, full-length recombinant human PAD4 (assay: ELISA, human PAD4 on plate, antibody 0.25 ug/mL).

| Binder | absorbance 490 nm/630 nm [OD] |
| --- | --- |
| B1 | 2.11 |
| B2 | 2.11 |
| B3 | 2.1 |
| B4 | 2.07 |
| B5 | 2.08 |
| B6 | 2.08 |

Each binder was assayed against T1, full-length recombinant human PAD4 (assay: ELISA, human PAD4 on plate, antibody 0.0625 ug/mL).

| Binder | absorbance 490 nm/630 nm [OD] |
| --- | --- |
| B1 | 2.15 |
| B2 | 2.12 |
| B3 | 2.12 |
| B4 | 2.12 |
| B5 | 2.11 |
| B6 | 2.12 |

Each binder was assayed against T1, full-length recombinant human PAD4 (assay: ELISA, human PAD4 on plate, antibody 0.015625 ug/mL).

| Binder | absorbance 490 nm/630 nm [OD] |
| --- | --- |
| B1 | 2.08 |
| B2 | 2.07 |
| B3 | 2.08 |
| B4 | 2.01 |
| B5 | 2.07 |
| B6 | 2.08 |

What follows are binders tested against T1, full-length recombinant human PAD4 (assay: ELISA, human PAD4 on plate, antibody 0.0002441 ug/mL).

| Binder | absorbance 490 nm/630 nm [OD] |
| --- | --- |
| B1 | 0.206 |
| B2 | 0.217 |
| B3 | 0.184 |
| B4 | 0.166 |
| B5 | 0.187 |
| B6 | 0.176 |

The binders below were run against T1, full-length recombinant human PAD4 (assay: ELISA, human PAD4 on plate, antibody 0.0009766 ug/mL).

| Binder | absorbance 490 nm/630 nm [OD] |
| --- | --- |
| B1 | 0.511 |
| B2 | 0.537 |
| B3 | 0.544 |
| B4 | 0.437 |
| B5 | 0.534 |
| B6 | 0.489 |

The binders below were run against T1, full-length recombinant human PAD4 (assay: ELISA, human PAD4 on plate, antibody 0.0039063 ug/mL).

| Binder | absorbance 490 nm/630 nm [OD] |
| --- | --- |
| B1 | 1.31 |
| B2 | 1.35 |
| B3 | 1.34 |
| B4 | 1.16 |
| B5 | 1.36 |
| B6 | 1.36 |

Each binder was assayed against T1, full-length recombinant human PAD4 (assay: ELISA, human PAD4 on plate, antibody 6.104E-05 ug/mL).

| Binder | absorbance 490 nm/630 nm [OD] |
| --- | --- |
| B1 | 0.063 |
| B2 | 0.111 |
| B3 | 0.1 |
| B4 | 0.075 |
| B5 | 0.082 |
| B6 | 0.07 |

Each binder was assayed against T1, full-length recombinant human PAD4 (assay: Biacore T200, antibody captured by anti-human antibody, human PAD4 as analyte).
Source text: The humanized anti-PAD4 antibodies derived from G8 and H7 were subjected to Biacore (GE Healthcare, Biacore T200) assay to evaluate their affinity. At that time, the combination of the frameworks was such that the H-chain framework was H4.00 and the L-chain framework was L4.29. The class of each antibody used was IgG1κ. Full-length recombinant human PAD4 was used as an antigen. A Human Antibody Capture kit (GE Healthcare, BR-1008-39) was used for the affinity assay. Specifically, in accordance with the standard protocol provided by the manufacture, NHS/EDC was used and an amine coupling method, in which a free carboxyl group is fixed on a surface of a CM5 chip, was used to immobilize a rabbit anti-human polyclonal antibody on the surface of a CM5 chip. Next, the humanized anti-PAD4 antibodies were each captured by the rabbit anti-human polyclonal antibody. Human PAD4 at each concentration was subjected to Biacore T200 measurement to create a kinetic sensorgram.

| Binder | kon [M⁻¹ s⁻¹] |
| --- | --- |
| B8 | 613000 |
